This assay deals with T1, GST-RING1B (mouse, UniProt Q9CQJ4 1-336).
T1 construct: RING1B (Ring1b), the coding region amplified from mouse cDNA, in pGEX-4T; also called pGEX-4T-mRing1b; source: E. coli BL21 (DE3), purified (glutathione agarose); not shown: GST, N-terminal, kept
T1 sequence (looked up): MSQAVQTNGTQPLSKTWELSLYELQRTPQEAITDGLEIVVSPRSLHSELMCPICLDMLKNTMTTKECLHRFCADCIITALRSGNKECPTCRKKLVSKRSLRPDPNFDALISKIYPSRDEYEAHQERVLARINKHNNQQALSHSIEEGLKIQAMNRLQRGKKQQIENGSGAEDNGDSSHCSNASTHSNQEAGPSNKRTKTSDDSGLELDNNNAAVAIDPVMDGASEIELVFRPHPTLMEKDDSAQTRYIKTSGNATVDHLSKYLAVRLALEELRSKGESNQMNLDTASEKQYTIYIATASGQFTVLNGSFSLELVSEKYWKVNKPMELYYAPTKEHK
Description: pull-down; same mixture as a3: purified His-mYAF2-mCherry (0, 100, 300 ng) with 300 ng purified GST-RING1B in the presence of mESC extract, PBS, 4 °C; read out as loss of RYBP from GST-RING1B. To be noted: both partners purified.

B1: His-mYAF2-mCherry (natural protein, mouse, UniProt Q99LW6 1-179, looked up)
chain: MGDKKSPTRPKRQPKPASDEGYWDCSVCTFRNSAEAFKCMMCDVRKGTSTRKPRPVSQLVAQQVTQQFVPPTQSKKEKKDRVEKDKSEKEAASKKNCHKKTRPRLKNVDRSSAQHLEVTVGDLTVIITDFKEKAKSAPASSAAGDQHSQGSCSSDSTERGVSRSSSPRGEASSLNGESH
notes: YAF2 (Yaf2), the coding region amplified from mouse cDNA, in pET-28a; also called His-YAF2; pET-28a-mYaf2-mCherry; source: E. coli BL21 (DE3), purified (Ni-NTA); not shown: His6, N-terminal, kept
As to B1, the binding result is “binds”.

Source of the values: publication PMC10630410, “Functional dissection of PRC1 subunits RYBP and YAF2 during neural differentiation of embryonic stem cells” (Nature Communications, 2023).
